PMC12087451, “The SmWRKY32-SmbHLH65/SmbHLH85 regulatory module mediates tanshinone biosynthesis in Salvia miltiorrhiza”

B1: pSmbHLH65 W-box probe (3 copies) (dsDNA)
DNA 1: TTCATTGACCAAATTTCATTGACCAAATTTCATTGACCAAAT
DNA 2: ATTTGGTCAATGAAATTTGGTCAATGAAATTTGGTCAATGAA
B2: pSmbHLH65-M cold probe (dsDNA)
DNA 1: TTCAAAAAAAAAATTTCAAAAAAAAAATTTCAAAAAAAAAAT
DNA 2: ATTTTTTTTTTGAAATTTTTTTTTTGAAATTTTTTTTTTGAA

Columns and labels:
[1] = molecular target: T1, GST-SmWRKY32 (Salvia miltiorrhiza, UniProt A0A0D5YAE6 1-129); experiment: EMSA; Chemiluminescent EMSA kit (Beyotime GS009) EMSA/Gel-Shift binding buffer, 25 C, 10 min then 20 min with biotin probe, 6% PAGE; salt and pH not stated; conditions: protein: recombinant; tags: N-terminal GST (pGEX-4T-1); label: biotin (labelled probe); blunt
[2] = molecular target: T1, GST-SmWRKY32; experiment: competition; 50-fold unlabelled mutant competitor; Chemiluminescent EMSA kit (Beyotime GS009) EMSA/Gel-Shift binding buffer, 25 C, 10 min then 20 min with biotin probe, 6% PAGE; salt and pH not stated; conditions: protein: recombinant; tags: N-terminal GST (pGEX-4T-1); label: none; blunt

T1 sequence (A0A0D5YAE6 entry or part of it): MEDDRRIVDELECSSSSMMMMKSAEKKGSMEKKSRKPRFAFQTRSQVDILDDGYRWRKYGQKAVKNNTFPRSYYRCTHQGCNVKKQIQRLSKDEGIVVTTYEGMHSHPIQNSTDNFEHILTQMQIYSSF

Binder | binding result [1] | binding result [2]
B1 | binds | 
B2 |  | no binding
